Test results: patent US20230416394A1

Key:
[1] = molecular target: human CD39 protein (Octet assays) (human); assay: Octet, antibody on sensor, CD39 gradient
[2] = molecular target: 6×His tagged human CD39 (human); assay: Biacore, antibody captured, 6×His human CD39 as analyte, 1:1 model
6×His tagged human CD39 (human), sequence (P49961 38-478): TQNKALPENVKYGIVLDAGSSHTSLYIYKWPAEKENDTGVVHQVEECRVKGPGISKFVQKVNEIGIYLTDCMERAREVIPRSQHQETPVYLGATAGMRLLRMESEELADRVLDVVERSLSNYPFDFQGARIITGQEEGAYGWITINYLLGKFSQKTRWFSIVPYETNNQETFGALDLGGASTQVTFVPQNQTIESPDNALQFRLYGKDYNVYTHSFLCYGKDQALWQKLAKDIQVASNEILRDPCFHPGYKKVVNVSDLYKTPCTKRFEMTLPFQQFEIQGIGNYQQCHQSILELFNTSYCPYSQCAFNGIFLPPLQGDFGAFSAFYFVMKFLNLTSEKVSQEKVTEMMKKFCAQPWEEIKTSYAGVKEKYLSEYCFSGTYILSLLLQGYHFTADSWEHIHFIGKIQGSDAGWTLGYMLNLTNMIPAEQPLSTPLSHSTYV

human CD39 protein (Octet assays) (human), sequence (P49961 38-478): as above

- Kd [1]: 0.687 nM
- koff [1]: 9.36e-05 s⁻¹
- kon [1]: 136000 M⁻¹ s⁻¹
- Kd [2]: 19.5 nM
- koff [2]: 0.0016 s⁻¹
- kon [2]: 82200 M⁻¹ s⁻¹
B1: hu23.H5L5 (antibody, from a related filing, V domains shown)
VH: QVQLVQSGAEVKKPGASVKVSCKASGYNLKDTFLHWVRQAPGQGLEWMGRIDPANGNIKYDPKFQGRVTITADTSANTAYMELISLRSEDTAVYYCANSPYYYGSGYRIFDVWGQGTTVTVSS
VL: QIVLTQSPATLSLSPGERATLSCSAFSSVNYMHWYQQKPGQAPRLLIYTTSNLASGIPTRFSGSGSGTSYTLTISSLEPEDFAVYYCQQRSTYPFTFGQGTKLEIK
